Assay results taken from publication PMC9708791.

Target: PER2 (V5-Per2) (UniProt O15055)
Assay: co-immunoprecipitation of V5-Per2 and HA-GSK3β
Settings: reference: wild-type HA-GSK3β; sites S9

- binding against the reference: lost
Substance: GSK3β (HA-tagged, Addgene plasmid) (from UniProt P49841) HA-GSK3β S9A
